Results reported in patent publication US20230341395A1 (GEMINA LABORATORIES, published 2023).

Experiments:
[1] = target: Monoclonal antibody against the SARS-CoV-2 Spike protein (A02038, Genscript)
[2] = target: Monoclonal antibody against the SARS-CoV-2 Nucleocapsid protein (A02039, Genscript)
[3] = target: T1, Recombinant SARS-CoV-2 Spike protein antigen (Z03501, Genscript) (SARS-CoV-2, UniProt P0DTC2 16-685); test: dot blot dipstick, gold nanoparticles with fusion protein and no antibody
T1 construct: also called S antigen; S protein antigen

[4] = target: T2, Recombinant SARS-CoV-2 Nucleocapsid protein antigen (Z03488, Genscript) (SARS-CoV-2, UniProt P0DTC9 1-419); test: as above
T2 construct: also called N protein antigen; Nucleocapsid antigen

B1: Gold-binding fusion protein EMT-003 (Protein G' - linker - gold binding protein) (other)
chain: MTYKLILNGKTLKGETTTEAVDAATAEKVFKQYANDNGVDGEWTYDDATKTFTVTEKPEVIDASELTPAVTTYKLVINGKTLKGETTTEAVDAATAEKVFKQYANDNGVDGEWTYDDATKTFTVTEKPEVIDASELTPAVTTYKLVINGKTLKGETTTKAVDAETAEKAFKQYANDNGVDGVWTYDDATKTFTVTEGGGGSGGGGSGGGGSASGGGMHGKTQATSGTIQSMHGKTQATSGTIQSMHGKTQATSGTIQSMHGKTQATSGTIQSMHGKTQATSGTIQSMHGKTQATSGTIQSMHGKTQATSGTIQS
notes: also called EMT-03; gold fusion protein
Kd [1]: 0.192 nM | koff [1]: 0.000103 s⁻¹ | kon [1]: 537000 M⁻¹ s⁻¹ | Kd [2]: 0.258 nM | koff [2]: 0.000149 s⁻¹ | kon [2]: 577000 M⁻¹ s⁻¹ | binding result [3]: no binding (tested: 0.5 µg antigen spotted) | binding result [4]: no binding (tested: 0.5 µg antigen spotted)
